We go through 5 molecules from paper PMC8605023 (2021).

Targets include NTF2 domain of G3BP1 (human, UniProt Q13283 11-133); SARS-CoV E 1-16; SARS-CoV NSP3 2019-2038; SARS-CoV-2 E 1-16.
Test in all cases: FP
Test [1] addresses SARS-CoV-2 NSP14 peptide with the YxxL motif, synthetic (SARS-CoV-2, UniProt P0DTD1).
Test [2] addresses MERS-CoV NSP14 peptide with the YxxL motif, synthetic (MERS-CoV, UniProt K9N7C7).
Test [3] deals with SARS-CoV NSP14 peptide with the YxxL motif, synthetic (SARS-CoV, UniProt P0C6X7).
The target of a further test is T1, NTF2 domain of G3BP2 (human, UniProt Q9UN86 11-133).
T1 chain: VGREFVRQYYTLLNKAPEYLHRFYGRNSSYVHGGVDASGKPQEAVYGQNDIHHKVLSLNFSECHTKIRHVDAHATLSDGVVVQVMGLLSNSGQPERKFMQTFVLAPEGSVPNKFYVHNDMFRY

The target in test [4] is SARS-CoV-2 NSP3 2019-2038.

NTF2 domain of G3BP1, sequence (Q13283 11-133): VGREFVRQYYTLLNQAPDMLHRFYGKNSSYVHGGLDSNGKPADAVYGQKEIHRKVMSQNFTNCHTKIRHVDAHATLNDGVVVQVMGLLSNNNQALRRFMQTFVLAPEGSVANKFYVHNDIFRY

B1: clathrin coat adaptor protein AP2M1, tag removed (domain or fragment)
chain: RNELFLDVLESVNLLMSPQGQVLSAHVSGRVVMKSYLSGMPECKFGMNDKIVIEKQGKGTADETSKSGKQSIAIDDCTFHQCVRLSKFDSERSISFIPPDGEFELMRYRTTKDIILPFRVIPLVREVGRTKLEVKVVIKSNFKPSLLAQKIEVRIPTPLNTSGVQVICMKGKAKYKASENAIVWKIKRMAGMKESQISAEIELLPTNDKKKWARPPISMNFEVPFAPSGLKVRYLKVFEPKLNYSDHDVIKWVRYIGRSGIYETR
On to B1, for which the values for the Kd in [1], in test [2] and in test [3] were 1.6 µM, 3 µM and 1.6 µM, respectively.

B2: MERS-CoV N peptide corresponding to the ΦxFG peptide, synthetic (peptide)
chain: APRAVSFADNNDITNT
For B2, the results for the Kd in the test with NTF2 domain of G3BP1 and with NTF2 domain of G3BP2 were 51 µM and 26 µM, respectively.

B3: SARS-CoV N peptide with the ΦxFG motif, synthetic (peptide)
chain: APRITFGGPTDSTDNN
On to B3, for which the Kd in the test with NTF2 domain of G3BP1 worked out at 2.8 µM; with NTF2 domain of G3BP2, 1.7 µM.

B4: FERM domain of Radixin (domain or fragment)
chain: INVRVTTMDAELEFAIQPNTTGKQLFDQVVKTVGLREVWFFGLQYVDSKGYSTWLKLNKKVTQQDVKKENPLQFKFRAKFFPEDVSEELIQEITQRLFFLQVKEAILNDEIYCPPETAVLLASYAVQAKYGDYNKEIHKPGYLANDRLLPQRVLEQHKLTKEQWEERIQNWHEEHRGMLREDSMMEYLKIAQDLEMYGVNYFEIKNKKGTELWLGVDALGLNIYEHDDKLTPKIGFPWSEIRNISFNDKKFVIKPIDKKAPDFVFYAPRLRINKRILALCMGNHELYMRRR
Turning to B4, the Kd was 38 µM in test [4], 11.9 µM with SARS-CoV E 1-16, 217 µM with SARS-CoV NSP3 2019-2038 and 11.9 µM in the test with SARS-CoV-2 E 1-16.

B5: SARS-CoV-2 N peptide with the ΦxFG motif, synthetic (peptide)
chain: APRITFGGPSDSTGSN
The molecule B5 displayed a Kd with NTF2 domain of G3BP2 of 2.8 µM.

In general, Kd refers to the equilibrium constant for the complex coming apart.
